This note sets out measurements from the supplement of paper PMC9112550, “Optimization of the antimicrobial peptide Bac7 by deep mutational scanning” (BMC Biology, 2022).

For the data set, the system named is Escherichia coli TOP10. Description: shrunken log2 fold change of peptide-encoding DNA abundance (4.5 h post-induction vs induction); higher = less antimicrobial activity (less host growth inhibition). As to conditions: time post-induction: 4.5 h; library: site-saturation at positions 5, 18, 19, 20.
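Also: peptides expressed intracellularly from a pBAD plasmid library in pooled LB shake-flask culture, induced with 0.3% L-arabinose, DNA abundance read by NGS, three biological replicates, DESeq2 with apeglm shrinkage.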

With RRIRARPPRLPRPRPRPQYCPRP, the “shrunken log2 fold change” value was -0.0903.

Regarding RRIRWRPPRLPRPRPRPFRQPRP, the “shrunken log2 fold change” value is -0.0956.

For RRIRVRPPRLPRPRPRPNEEPRP, the “shrunken log2 fold change” value is -0.00544.

As to RRIRQRPPRLPRPRPRPVKFPRP, the “shrunken log2 fold change” value is -0.0717.

Regarding RRIRGRPPRLPRPRPRPCPRPRP, the “shrunken log2 fold change” value worked out at 0.23.

For the sequence RRIRERPPRLPRPRPRPHHIPRP, the “shrunken log2 fold change” value is -0.0669.

On to RRIRYRPPRLPRPRPRPMVLPRP, for which the “shrunken log2 fold change” value was -0.0934.

For RRIRVRPPRLPRPRPRPCYWPRP, the “shrunken log2 fold change” value was -0.0621.

As to RRIRFRPPRLPRPRPRPCVAPRP, the “shrunken log2 fold change” value is -0.201.

Turning to RRIRFRPPRLPRPRPRPRPPPRP, the “shrunken log2 fold change” value amounted to 1.36.

As to RRIRWRPPRLPRPRPRPCSDPRP, the “shrunken log2 fold change” value was 0.273.

With RRIRVRPPRLPRPRPRPFRVPRP, the “shrunken log2 fold change” value is -0.266.

In the case of RRIRIRPPRLPRPRPRPAWYPRP, the “shrunken log2 fold change” value came out at 0.0724.

On to RRIRTRPPRLPRPRPRPGHEPRP, for which the “shrunken log2 fold change” value is 0.0552.

With RRIRVRPPRLPRPRPRPFMQPRP, the “shrunken log2 fold change” value is -0.285.

On to RRIRYRPPRLPRPRPRPCYKPRP, for which the “shrunken log2 fold change” value was -0.0156.

On to RRIRKRPPRLPRPRPRPHEEPRP, for which the “shrunken log2 fold change” value turned out to be 0.0526.

With RRIRQRPPRLPRPRPRPIRVPRP, the “shrunken log2 fold change” value is -0.00674.

For RRIRLRPPRLPRPRPRPMIGPRP, the “shrunken log2 fold change” value came to 0.0237.

Consider RRIRTRPPRLPRPRPRPCFMPRP, for which the “shrunken log2 fold change” value was -0.153.

With RRIRYRPPRLPRPRPRPYWAPRP, the “shrunken log2 fold change” value was -1.11.

Regarding RRIRHRPPRLPRPRPRPGHSPRP, the “shrunken log2 fold change” value is -0.27.

On to RRIRVRPPRLPRPRPRPEKPPRP, for which the “shrunken log2 fold change” value came to 0.00308.

On to RRIRMRPPRLPRPRPRPIWMPRP, for which the “shrunken log2 fold change” value was -0.101.

Regarding RRIRERPPRLPRPRPRPWWQPRP, the “shrunken log2 fold change” value was -0.0206.

Consider RRIRFRPPRLPRPRPRPYFSPRP, for which the “shrunken log2 fold change” value was -0.245.

As to RRIRNRPPRLPRPRPRPHDAPRP, the “shrunken log2 fold change” value is -0.116.

For the sequence RRIRGRPPRLPRPRPRPETLPRP, the “shrunken log2 fold change” value was determined as 1.37.

As to RRIRHRPPRLPRPRPRPWFYPRP, the “shrunken log2 fold change” value is -0.244.

For RRIRVRPPRLPRPRPRPAQRPRP, the “shrunken log2 fold change” value was 0.184.

RRIRGRPPRLPRPRPRPYYCPRP: the “shrunken log2 fold change” value is -0.172.

Take RRIRDRPPRLPRPRPRPRLFPRP: the “shrunken log2 fold change” value worked out at 0.653.

RRIRLRPPRLPRPRPRPCSWPRP: the “shrunken log2 fold change” value was -0.0168.

For the sequence RRIRTRPPRLPRPRPRPDELPRP, the “shrunken log2 fold change” value was -0.0838.

For the sequence RRIRFRPPRLPRPRPRPGRAPRP, the “shrunken log2 fold change” value is 0.712.

Take RRIRDRPPRLPRPRPRPRCPPRP: the “shrunken log2 fold change” value was determined as 0.131.

Take RRIRERPPRLPRPRPRPGCIPRP: the “shrunken log2 fold change” value was -1.12.

With RRIRTRPPRLPRPRPRPAMHPRP, the “shrunken log2 fold change” value turned out to be 0.289.

On to RRIRDRPPRLPRPRPRPCMIPRP, for which the “shrunken log2 fold change” value came to 0.28.

As for RRIRLRPPRLPRPRPRPEERPRP, the “shrunken log2 fold change” value came out at 0.231.

RRIRARPPRLPRPRPRPSADPRP: the “shrunken log2 fold change” value came out at 0.804.

For the sequence RRIRLRPPRLPRPRPRPPMPPRP, the “shrunken log2 fold change” value was 0.0906.

For RRIRLRPPRLPRPRPRPTNRPRP, the “shrunken log2 fold change” value amounted to 0.267.

For RRIRDRPPRLPRPRPRPTQQPRP, the “shrunken log2 fold change” value came out at 0.248.

RRIRARPPRLPRPRPRPHQPPRP: the “shrunken log2 fold change” value is -0.115.

Regarding RRIRHRPPRLPRPRPRPNQSPRP, the “shrunken log2 fold change” value was -0.3.

As for RRIRCRPPRLPRPRPRPISQPRP, the “shrunken log2 fold change” value is -0.544.

In the case of RRIRWRPPRLPRPRPRPFGLPRP, the “shrunken log2 fold change” value amounted to 0.0452.

For RRIRQRPPRLPRPRPRPMSNPRP, the “shrunken log2 fold change” value came out at 0.0758.

Consider RRIRARPPRLPRPRPRPRNQPRP, for which the “shrunken log2 fold change” value was -0.012.

Regarding RRIRYRPPRLPRPRPRPFDIPRP, the “shrunken log2 fold change” value was 0.0167.

Turning to RRIRKRPPRLPRPRPRPNIQPRP, the “shrunken log2 fold change” value is -0.0271.

Consider RRIRQRPPRLPRPRPRPMEYPRP, for which the “shrunken log2 fold change” value is -0.479.

RRIRARPPRLPRPRPRPYWPPRP: the “shrunken log2 fold change” value was -0.00546.

With RRIRFRPPRLPRPRPRPWKIPRP, the “shrunken log2 fold change” value was -0.0171.

Consider RRIRERPPRLPRPRPRPGTIPRP, for which the “shrunken log2 fold change” value is -0.386.

Turning to RRIRRRPPRLPRPRPRPGHYPRP, the “shrunken log2 fold change” value is -0.0611.

In the case of RRIRDRPPRLPRPRPRPPIVPRP, the “shrunken log2 fold change” value was -0.161.

RRIRPRPPRLPRPRPRPAWDPRP: the “shrunken log2 fold change” value was determined as 0.431.

Turning to RRIRYRPPRLPRPRPRPMIFPRP, the “shrunken log2 fold change” value is -1.43.

Regarding RRIRERPPRLPRPRPRPPSEPRP, the “shrunken log2 fold change” value is 0.156.

RRIRFRPPRLPRPRPRPLPSPRP: the “shrunken log2 fold change” value was found to be 0.0283.

Turning to RRIRARPPRLPRPRPRPVRAPRP, the “shrunken log2 fold change” value is 0.924.

Take RRIRTRPPRLPRPRPRPGFWPRP: the “shrunken log2 fold change” value was 0.199.

For the sequence RRIRIRPPRLPRPRPRPDYGPRP, the “shrunken log2 fold change” value was -0.117.

With RRIRHRPPRLPRPRPRPCHSPRP, the “shrunken log2 fold change” value is -0.19.

For RRIRCRPPRLPRPRPRPMCAPRP, the “shrunken log2 fold change” value came out at 0.0886.

RRIRMRPPRLPRPRPRPQNVPRP: the “shrunken log2 fold change” value was -0.0183.

RRIRHRPPRLPRPRPRPKYQPRP: the “shrunken log2 fold change” value was -0.145.

RRIRFRPPRLPRPRPRPCWQPRP: the “shrunken log2 fold change” value was determined as 3.76.

RRIRIRPPRLPRPRPRPYHWPRP: the “shrunken log2 fold change” value was -0.275.

Take RRIRNRPPRLPRPRPRPHKNPRP: the “shrunken log2 fold change” value was -0.237.

Turning to RRIRARPPRLPRPRPRPWPNPRP, the “shrunken log2 fold change” value came out at 0.111.

As for RRIRVRPPRLPRPRPRPRSNPRP, the “shrunken log2 fold change” value came to 0.125.

RRIRHRPPRLPRPRPRPTIWPRP: the “shrunken log2 fold change” value was -0.284.

With RRIRERPPRLPRPRPRPEAPPRP, the “shrunken log2 fold change” value was found to be 0.406.

RRIRIRPPRLPRPRPRPLNNPRP: the “shrunken log2 fold change” value is -1.15.

Take RRIRSRPPRLPRPRPRPMTFPRP: the “shrunken log2 fold change” value is -0.202.

RRIRGRPPRLPRPRPRPGGLPRP: the “shrunken log2 fold change” value came to 0.842.

RRIRVRPPRLPRPRPRPYERPRP: the “shrunken log2 fold change” value amounted to 0.0458.

For RRIRNRPPRLPRPRPRPQHEPRP, the “shrunken log2 fold change” value is -0.0581.

Take RRIRGRPPRLPRPRPRPNPLPRP: the “shrunken log2 fold change” value worked out at 0.217.

As for RRIRTRPPRLPRPRPRPNCKPRP, the “shrunken log2 fold change” value is -0.218.

For RRIRYRPPRLPRPRPRPGHKPRP, the “shrunken log2 fold change” value is -0.485.

Consider RRIRNRPPRLPRPRPRPRAHPRP, for which the “shrunken log2 fold change” value was -0.0951.

With RRIRHRPPRLPRPRPRPRKEPRP, the “shrunken log2 fold change” value is -0.0122.

As to RRIRVRPPRLPRPRPRPSKWPRP, the “shrunken log2 fold change” value was -0.283.

Take RRIRWRPPRLPRPRPRPQSQPRP: the “shrunken log2 fold change” value stood at 0.00151.

For RRIRLRPPRLPRPRPRPGGAPRP, the “shrunken log2 fold change” value was 0.384.

For RRIRERPPRLPRPRPRPDWIPRP, the “shrunken log2 fold change” value is -0.126.

Regarding RRIRLRPPRLPRPRPRPRLKPRP, the “shrunken log2 fold change” value came out at 0.885.
